Experimental data as given in patent US20140120095A1 (Boehringer Ingelheim, published 2014).
Positions count from the first letter of the chain named.

B1: DLLBII129A03 (VHH, not shown: small tags and cut ends)
VHH: EVQLVESGGGLVQAGGSLRLSCAASGRTFSSYAMAWFRQAPGKEREYVAAIRWSGGTAYYADSVQGRFTISRDNAKNTVYLQMNSLRPEDTAVYYCANRAPDTRLRPYLYDYWGQGTQVTVSS
B2: DLLBII130B03 (VHH, not shown: small tags and cut ends)
VHH: B1 VHH with F37Y, R87K, R106A
B3: DLLBII130F06 (VHH, not shown: small tags and cut ends)
VHH: B1 VHH with F37Y, R87K, R106A, L109E
B4: DLLBII129H07 (VHH, not shown: small tags and cut ends)
VHH: B1 VHH with F37Y, R87K, R106E, L109E
B5: DLLBII95F02 (VHH)
VHH: EVQLVESGGGSVQAGGSLRLSCAASGRTFSSYAMGWFRQAPGKEREFVAAINWSGGYTYYADSVRGRFTISRDNAKNTVYLQMNSLKPEDTAVYYCAAPAPGSSGYEYDYWGQGTQVTVSS
B6: DLLBII104C04 (VHH)
VHH: EVQLVESGGGLVQAGGSLRLSCAAAGSTFSSYVMGWYRQAPGKQRELVAHISTRGITYYADSVKGRFTISRDNAKNTMYLQMNSLKPEDTAVYYCNTRRNFLSNYWGQGTQVTVSS
B7: VEGFBII111D05 (VHH)
VHH: EVQLVESGGGLVQTGGSLRLSCEASGRTFSSYSMGWFRQAPGKEREFVVAISKGGYKYDSVSLEGRFTISRDNAKNTVYLQINSLRPEDTAVYYCASSRAYGSSRLRLADTYEYWGQGTLVTVSS
B8: VEGFBII112D11 (VHH)
VHH: B7 VHH with T14P
B9: VEGFBII118E10 (VHH)
VHH: B7 VHH with G16D, A24V, P41Q, S60A, R71K, R86K, L120Q
B10: VEGFBII113A08 (VHH)
VHH: B7 VHH with A24V, R71K
B11: VEGFBII114C09 (VHH)
VHH: B7 VHH with T14P, G16D, A24V, R71K
B12: VEGFBII114D03 (VHH)
VHH: B7 VHH with G16D, E23A, A24V, P41Q, R71K
B13: VEGFBII113E03 (VHH)
VHH: B7 VHH with G16D, A24V, P41Q, R71K, I82M
B14: VEGFBII111G06 (VHH)
VHH: B7 VHH with T14P, E23A, I82M
B15: VEGFBII114D02 (VHH)
VHH: B7 VHH with A24V
B16: DLLBII133A05 (VHH)
VHH: EVQLVESGGGLVQPGGSLRLSCAASGFTFGSYDMSWVRRSPGKGPEWVSAINSGGGSTFYTDYVKGRFTISRDNAKNTLYLQMNSLKPEDTAVYYCAADRYIWARQGEYWGAYQYDYWGQGTQVTVSS
B17: DLLBII104A03 (VHH)
VHH: EVQLVESGGGLVQAGGSLRLSCAASGDIPRIAAMGWYRQAPGKQRELVATVSNAATTRYADSAKGRFTISRDNAKTVSLQMDNLKPEDTGVYYCYSLATTVTPSWVNYWGQGTQVTVSS
B18: DLLBII112E07 (VHH)
VHH: EVQLVESGGGLVQAGGSLRLSCAASGRTVRSYATGWFRQAPGKEREFVAALRWSIGSIASVYYDDSVKGRFTISGDNAENTVYLQMNALKPEDTAIYYCASTTRGRYSALSASAYDYWGQGTQVTVSS
B19: DLLBII107C03 (VHH)
VHH: EVQLVESGGGLVQPGGSLRLSCEVSGSIGSVSDMRWYRQAPGLQYELVARITSGSITDYSDSVKGRFTISRDNAKNTVYLQMNSLKPEDTAVYYCNADVQHSAWLKPLTYWGQGTQVTVSS
B20: DLLBII80E08 (VHH)
VHH: EVQLVESGGGLVQAGGSLTLSCAASGGTFTTYAMGWFRQAPGKEREFVAAVSRFGVSWDYADSVKGRFTISRDNTANTLKLRMNSLKADDTAVYYCAAGGRSFLPFVPAYWGQGTQVTVSS
B21: DLLBII104B05 (VHH)
VHH: EVQLVESGGGSVQAGGSLRLSCAASGSISRIDVMAWYRQAPGKERELVASISSGGSTNYADSVKGRFTISREYFKNMMYLQMNSLKFEDTAVYYCNADSRRGGVGNFFRSWGQGTQVTVSS
B22: DLLBII101H05 (VHH)
VHH: EVQLVESGGGSAQAGGSLRLSCAASGRTSSTYAMGWFRQAPGKEHEFVSAIGRGTGATSYGDSVKGRFTISRDNAKNTVYLQMNSLQLEDTGDYYCVAGRGFYHDYSSYEYRGQGTQVTVSS
B23: DLLBII101H09 (VHH)
VHH: EVQLVESGGGLVQPGGSLRLSCAASGFTLGYYTIVWFRQAPGKERKGVSCISSRDGSRYYADSVKGRFTISRDNAKNTVYLRMNSLKPEDTAVYYCAAGPDCSSYDYWGQGTQVTVSS

Target: T1, recombinant human DLL4 (C-terminally His-tagged extracellular domain, R&D Systems) (human, UniProt Q9NR61 25-522, biotinylated in the competition ELISA)
T1 construct: also called rhDLL4; hDLL4
Experiment: SPR (Biacore), rhDLL4
Method: Kinetic analysis to determine the affinity of the DII4-VHH interaction is performed by Surface Plasmon Resonance (SPR) on a Biacore T100 instrument. […] Purified VHHs or Fab fragment are injected for 2 minutes at different concentrations (between 10 and 300 nM) and allowed to dissociate for 20 min at a flow rate of 45 μl/min. Between sample injections, the surfaces are regenerated with 10 mM glycine pH1.5 and 100 mM HCl. HBS-N (Hepes buffer pH7.4) is used as running buffer. If possible, data are evaluated by fitting a 1:1 interaction model (Langmuir binding) onto the binding curves. The affinity constant KD is calculated from resulting association and dissociation rate constants (kₐ) and […].

Compared with B1, B2 is 1.7-fold lower in Kd: 0.5 nM for the first, 0.3 nM for the second.

B3 and B4 are within 1.5-fold of each other in Kd: 0.4 nM for the first, 0.5 nM for the second.

Compared with B1, B2 is 1.8-fold lower in koff: 0.00012 s⁻¹ for the first, 6.8e-05 s⁻¹ for the second.

B3 and B4 are within 1.5-fold of each other in koff: 8e-05 s⁻¹ for the first, 7.3e-05 s⁻¹ for the second.

B1 and B2 are within 1.5-fold of each other in kon: 210000 M⁻¹ s⁻¹ for the first, 220000 M⁻¹ s⁻¹ for the second.

B3 and B4 are within 1.5-fold of each other in kon: 200000 M⁻¹ s⁻¹ for the first, 160000 M⁻¹ s⁻¹ for the second.

Target: T1, recombinant human DLL4 (C-terminally …)
Experiment: SPR (Biacore); summary table

Compared with B1, B2 is 1.7-fold lower in Kd: 0.5 nM for the first, 0.3 nM for the second. The second binds more tightly here.

B3 and B4 are within 1.5-fold of each other in Kd: 0.4 nM for the first, 0.5 nM for the second.

Target: T2, recombinant human DLL4 (human, UniProt Q9NR61 25-522)
T2 construct: also called rhDLL4; hDLL4
Experiment: Biacore off-rate, periplasmic extract

B5 and B6 are within 1.5-fold of each other in koff: 0.00067 s⁻¹ for the first, 0.001 s⁻¹ for the second.

Target: T3, recombinant human VEGF165 (human, UniProt P15692-4 27-191, biotinylated in the competition assays)
T3 construct: Bought protein; also called hVEGF165; rhVEGF165
Experiment: AlphaScreen, hVEGF165/hVEGFR2-Fc competition
Design: % inhibition: concentration or dose not given beside the values

T3 sequence (P15692 other isoform, or with tags, fused parts or gaps): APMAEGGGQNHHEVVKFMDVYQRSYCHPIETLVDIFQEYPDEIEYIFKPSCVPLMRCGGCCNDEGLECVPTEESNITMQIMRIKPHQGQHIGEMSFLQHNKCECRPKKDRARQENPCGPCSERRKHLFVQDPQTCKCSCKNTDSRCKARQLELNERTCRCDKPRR

B7 and B8 are the same in “% inhibition” value: 100% for the first, 100% for the second.

B9 and B10 are the same in “% inhibition” value: 100% for the first, 100% for the second.

B11 and B12 are the same in “% inhibition” value: 100% for the first, 100% for the second.

B13 and B14 are the same in “% inhibition” value: 100% for the first, 100% for the second.

B15 was tested, and the “% inhibition” value was 100%.

B7 and B8 are within 1.5-fold of each other in IC50: 0.209 nM for the first, 0.221 nM for the second.

B9 and B10 are within 1.5-fold of each other in IC50: 0.189 nM for the first, 0.253 nM for the second.

B11 and B12 are within 1.5-fold of each other in IC50: 0.215 nM for the first, 0.227 nM for the second.

B13 and B14 are within 1.5-fold of each other in IC50: 0.29 nM for the first, 0.366 nM for the second.

With B15 the IC50 was 0.199 nM.

Target: T1, recombinant human DLL4 (C-terminally …)
Experiment: competition ELISA hDLL4/hNotch1-Fc; summary table

B16 and B1 are within 1.5-fold of each other in IC50: 2.1 nM for the first, 1.8 nM for the second.

B2 and B3 are within 1.5-fold of each other in IC50: 1.5 nM for the first, 1.3 nM for the second.

B4 showed an IC50 of 1 nM.

Target: T1, recombinant human DLL4 (C-terminally …)
Experiment: competition ELISA, biotinylated hDLL4 to coated hNotch1-Fc

B16 and B1 are within 1.5-fold of each other in IC50: 2.1 nM for the first, 1.8 nM for the second.

B2 and B3 are within 1.5-fold of each other in IC50: 1.5 nM for the first, 1.3 nM for the second.

Binder B4 has an IC50 of 1 nM.

Target: T4, human DLL4 overexpressed on cells (human, UniProt Q9NR61 27-685)
T4 construct: full length human DLL4 on CHO or HEK293 cells; also called CHO-hDLL4; CHO-hDII4
Experiment: FMAT, labelled hNotch1-Fc on CHO-hDLL4, periplasmic extract
From the text: (§1) All calculations are based on the FL1_total signal which comprises the average of the fluorescence per well times the number of counts per well.

Going from B17 to B18, the “% inh” value falls from 86% to 80%.

Going from B5 to B19, the “% inh” value falls from 81% to 75%.

First: B6
Second: B20
The “% inh” value of the first is higher: 87% for the first, 71% for the second.

First: B21
Second: B22
The “% inh” value of the first is higher: 86% for the first, 85% for the second.

With B23 the “% inh” value was 87%.

Target: T5, mouse DLL4 overexpressed on cells (mouse, UniProt Q9JI71 27-686)
T5 construct: whole, on cells; also called CHO-mDLL4; CHO-mDII4
Experiment: FMAT, labelled hNotch1-Fc on CHO-mDLL4, periplasmic extract
From the text: as §1

T5 sequence (Q9JI71 27-686): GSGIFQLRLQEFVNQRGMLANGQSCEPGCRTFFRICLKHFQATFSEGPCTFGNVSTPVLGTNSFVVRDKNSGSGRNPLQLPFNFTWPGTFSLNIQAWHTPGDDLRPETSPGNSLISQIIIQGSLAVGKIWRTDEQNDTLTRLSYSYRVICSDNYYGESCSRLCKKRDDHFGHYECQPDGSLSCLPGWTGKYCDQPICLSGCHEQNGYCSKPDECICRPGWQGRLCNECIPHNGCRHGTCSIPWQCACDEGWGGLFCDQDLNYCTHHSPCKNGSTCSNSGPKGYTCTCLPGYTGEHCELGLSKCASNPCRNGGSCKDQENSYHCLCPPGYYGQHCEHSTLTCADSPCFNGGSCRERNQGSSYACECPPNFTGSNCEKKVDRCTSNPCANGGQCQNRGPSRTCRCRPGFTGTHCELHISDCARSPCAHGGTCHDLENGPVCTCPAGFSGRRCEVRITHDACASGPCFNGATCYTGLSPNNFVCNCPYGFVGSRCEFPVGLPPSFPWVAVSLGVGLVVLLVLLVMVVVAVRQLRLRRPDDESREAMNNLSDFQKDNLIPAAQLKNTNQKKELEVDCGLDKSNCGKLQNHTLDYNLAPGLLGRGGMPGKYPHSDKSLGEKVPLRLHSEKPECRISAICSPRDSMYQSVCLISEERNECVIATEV

Compared with B17, B18 is higher in “% inh” value: 83% for the first, 85% for the second.

Compared with B5, B19 is higher in “% inh” value: 71% for the first, 80% for the second.

Compared with B6, B20 is lower in “% inh” value: 83% for the first, 82% for the second.

First: B21
Second: B22
The “% inh” value of the first is lower: 78% for the first, 83% for the second.

In the case of B23, the “% inh” value is reported as 75%.

Target: T1, recombinant human DLL4 (C-terminally …)
Experiment: ProteOn off-rate screen, periplasmic extract, coated human DLL4
Method: (§2) In a first cycle, amino acid substitutions are introduced randomly in both framework (FW) and complementary determining regions (CDR) using the error-prone PCR method. […] After a polish step, PCR products are inserted via unique restriction sites into a vector designed to facilitate phage display of the VHH library. Consecutive rounds of in-solution selections are performed using decreasing concentrations of biotinylated recombinant human DLL4 (biot-rhDLL4) and trypsin elutions. Affinity-driven selections in a third round using cold rhDLL4 (at least 100× excess over biot-rhDLL4) are also performed. No selections on murine DLL4 are included as (conservation of) cross-reactivity is assessed at the screening level. Individual mutants are produced as recombinant protein using an expression vector derived from pUC119, which contains the LacZ promoter, a resistance gene for ampicillin, a multiple cloning site and an ompA leader sequence (pAX50). E. coliTG1 cells are transformed with the expression vector library and plated on agar plates (LB+Amp+2% glucose). Single colonies are picked from the agar plates and grown in 1 mL 96-deep-well plates. VHH expression is induced by adding IPTG (1 mM). Periplasmic extracts (in a volume of ˜80 uL) are prepared according to standard methods and screened for binding to recombinant human and mouse DII4 in a ProteOn (BioRad, Hercules, Calif., USA) off-rate assay. In brief, a GLC ProteOn Sensor chip is coated with recombinant human DII4 on the “ligand channels” L2 and L4 (with L1/L3 as reference channel), while “ligand channels” […] is coated with mouse DII4. Periplasmic extract of affinity-matured clones is diluted 1/10 and injected across the “analyte channels” A1-A6. An average off-rate is calculated of the wild type clones present in the plate and served as a reference to calculate off-rate improvements.

Going from B1 to B2, the “fold (off-rate vs DLLBII101G08)” value rises from 19 fold to 27 fold.

First: B3
Second: B4
The “fold (off-rate vs DLLBII101G08)” value of the first is lower: 27 fold for the first, 30 fold for the second.

Compared with B1, B2 is 1.8-fold lower in koff: 0.00012 s⁻¹ for the first, 6.7e-05 s⁻¹ for the second.

B3 and B4 are within 1.5-fold of each other in koff: 6.5e-05 s⁻¹ for the first, 7.4e-05 s⁻¹ for the second.

Target: T6, recombinant mouse DLL4 (C-terminally His-tagged extracellular domain, R&D Systems) (mouse, UniProt Q9JI71 27-532)
T6 construct: extracellular domain; also called rmDLL4; mDLL4
Experiment: ProteOn off-rate screen, periplasmic extract, coated mouse DLL4
Method: as §2

T6 sequence (Q9JI71 27-532): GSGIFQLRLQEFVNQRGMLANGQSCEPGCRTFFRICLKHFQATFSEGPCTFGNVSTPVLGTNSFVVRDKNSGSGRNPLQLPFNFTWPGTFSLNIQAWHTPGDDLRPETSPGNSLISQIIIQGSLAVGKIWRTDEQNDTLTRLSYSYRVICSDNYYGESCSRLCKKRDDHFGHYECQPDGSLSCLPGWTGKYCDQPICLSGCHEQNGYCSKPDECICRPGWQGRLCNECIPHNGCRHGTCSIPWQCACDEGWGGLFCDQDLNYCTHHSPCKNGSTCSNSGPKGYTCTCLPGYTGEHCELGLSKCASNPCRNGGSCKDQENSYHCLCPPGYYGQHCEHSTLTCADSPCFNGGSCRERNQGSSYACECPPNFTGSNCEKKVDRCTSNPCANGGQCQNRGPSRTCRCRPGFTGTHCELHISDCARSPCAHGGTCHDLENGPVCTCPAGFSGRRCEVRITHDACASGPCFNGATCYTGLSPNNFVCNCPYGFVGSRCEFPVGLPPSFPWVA

Compared with B1, B2 is higher in “fold (off-rate vs DLLBII101G08)” value: 18 fold for the first, 20 fold for the second.

Going from B3 to B4, the “fold (off-rate vs DLLBII101G08)” value rises from 19 fold to 27 fold.

Compared with B1, B2 is 1.6-fold lower in koff: 0.00038 s⁻¹ for the first, 0.00024 s⁻¹ for the second.

B3 and B4 are within 1.5-fold of each other in koff: 0.00026 s⁻¹ for the first, 0.00025 s⁻¹ for the second.
